We go through two molecules from paper PMC7729563, “Phospho-Mutant Activity Assays Provide Evidence for the Negative Regulation of Transcriptional Regulator PRE1 by Phosphorylation” (International Journal of Molecular Sciences, 2020).

The target of test [1] is T1, GST-BIN2 (BR-… 2, GSK3-like kinase) (Arabidopsis thaliana, UniProt Q39011 1-380).
T1 construct: GST-BIN2 is the only recombinant wild-type BIN2 described (methods 4.11); also called brassinosteroid-insensitive 2; source: E. coli, purified
T1 sequence (looked up): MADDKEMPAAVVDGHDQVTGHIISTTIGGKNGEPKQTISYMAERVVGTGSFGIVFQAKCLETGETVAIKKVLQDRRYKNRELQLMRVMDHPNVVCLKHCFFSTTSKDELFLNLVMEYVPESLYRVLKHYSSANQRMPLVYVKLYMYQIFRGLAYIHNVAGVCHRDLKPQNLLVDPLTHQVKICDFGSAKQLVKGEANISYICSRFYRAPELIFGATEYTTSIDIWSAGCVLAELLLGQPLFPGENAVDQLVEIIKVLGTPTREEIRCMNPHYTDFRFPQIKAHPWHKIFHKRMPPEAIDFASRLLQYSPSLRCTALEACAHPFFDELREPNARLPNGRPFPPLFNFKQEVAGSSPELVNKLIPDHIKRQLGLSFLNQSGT
As to the kind of experiment: far-Western, overlay or dot blot; overlay assay in vitro (Figure S5A); format not told. Particulars: both partners purified.

A further test has as its target T2, GST-IBH1 (Arabidopsis thaliana, UniProt Q9SKX1 1-156).
T2 construct: also called glutathione S-transferase (GST)-IBH1; source: bacteria, purified on glutathione beads; not shown: GST, N-terminal, kept
T2 sequence (looked up): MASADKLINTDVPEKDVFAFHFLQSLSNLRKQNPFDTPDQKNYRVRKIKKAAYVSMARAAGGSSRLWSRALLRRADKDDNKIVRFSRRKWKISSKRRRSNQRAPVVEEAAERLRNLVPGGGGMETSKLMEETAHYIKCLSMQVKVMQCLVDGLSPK
As to the kind of experiment: pull-down; 1 μg GST-IBH1 on glutathione beads with 1 μg MBP fusion; 20 mM Tris-HCl pH 7.5, 100 mM NaCl, 1 mM EDTA; washes with 300 mM NaCl, 0.5% Triton X-100; anti-MBP immunoblot. Particulars: both partners purified.

Positions count from the first letter of the chain named.

B1: MBP-PRE1 (natural protein, Arabidopsis thaliana, UniProt Q9FLE9 1-92, looked up)
chain: MSNRRSRQSSSAPRISDNQMIDLVSKLRQILPEIGQRRRSDKASASKVLQETCNYIRNLNREVDNLSERLSQLLESVDEDSPEAAVIRSLLM
notes: MBP-PRE1 is the only recombinant PRE1 described; source: E. coli, purified on amylose resin beads; not shown: MBP, N-terminal, kept
Consider B1, for which the binding result (in test [1]; with GST-IBH1) was “binds” in each case.

B2: MBP-PRE1^S67A (natural protein, Arabidopsis thaliana, UniProt Q9FLE9 1-92, looked up)
chain: B1 chain with S67A
notes: source: E. coli, purified on amylose resin beads; not shown: MBP, N-terminal, kept
B2: the binding result with GST-IBH1 was “binds”.
